Reference: US11065317B2, “Heat shock protein-binding peptide compositions and methods of use thereof” (Agenus Inc., priority 2018, dated 2021)

Assays:
human Hsc70 = target: T1, human Hsc70 (Homo sapiens, UniProt P11142); experiment: Percent complexation of peptides with Hsc70 by size exclusion chromatography; format: binding; conditions: 60 minutes at 30° C., SEC, 214 nm
T1 construct: made in house; host or cells: E. coli
Description: In a separate experiment, further variants of the peptide NLLRLTG (SEQ ID NO: 70) were generated and the ability of these peptides to form a peptide-Hsc70 complex was analyzed. Peptides were again synthesized using standard Fmoc solid-phase chemical synthesis, as described above. Individual peptides were solubilized in pH adjusted water at a concentration of 250 μM, and spiked with polysorbate 20 to a final concentration of 0.1%. To form a peptide-Hsc70 complex, Hsc70 (1 mg/ml, 0.1% polysorbate) was mixed with peptide at peptide:Hsc70 molar ratios of, 0.25:1, 0.5:1, 1:1, 2:1, and 4:1, for 60 minutes at 30° C. Following incubation, samples were cooled for 5 minutes at room temperature and transferred to HPLC vials for analysis. To evaluate the quantity of the complex in the solution, 20 μl (10 μg) of the sample was loaded on a size exclusion chromatography column TSKgel SuperSW3000 (Tosoh Bioscience) at a flow rate of 0.2 ml/min with 1×PBS as a running buffer. The data was collected by measuring the absorbance at 214 nm.
The percent of Hsc70 bound to peptide was calculated by SEC. As shown in the SEC chromatogram depicted in FIG. 1, recombinant human heat shock cognate 71 kDa protein (Hsc70) appeared as monomer (M), dimer (D), trimer (T), and higher order high molecular weight (HMW) oligomeric species when subjected to SEC chromatography. Resolution and evaluation of the extent to which peptide-Hsc70 complex was formed with a given peptide or peptide mixture was complicated by the close elution of a complex of Hsc70 monomer with peptide (Msh). The peaks corresponding to monomer and complex overlap and were not fully resolved by conventional SEC media. In order to more accurately calculate the extent of complex formation, the following data analytical method was used. […] Peak area integrations of these protein species were well resolved from the complex and monomer. Further, the extent to which complex was formed appeared to be […] to the extent to which trimer and dimer were recruited to complex formation. Because of this observation, changes in trimer and dimer reflected the extent to which monomer was recruited to the formation of complex. Thus, the progression of changes in the level of trimer and dimer was used to calculate expected changes in the peak areas of overlapping complex and monomer species, and these calculated peak areas were used to calculate net formation of complex.
Terms used for various chromatographic fractions include: High Molecular Weight (HMW), Trimer and other mid-order oligomer (T), Dimer (D), Complex (C), Monomer shoulder (Msh), and Monomer (M) (see FIG. 1). Peak areas of the various fractions were extracted from SEC data and the percentage of peptide-Hsc70 complex formation was calculated using the following set of equations: % Complex=(AREAcomplex/AREATotal)×100 AREAcomplex=AREATotal−(AreaT+D+AreaMshx+AreaMx) AREATotal=AREAT+D,C,Msh,M+(AREAHDw-x−AREAHDW-0) AREAMshx=AREAMsh0×(AREA(T+D)x)/(AREA(T+D)0) AREAMx=AREAM0×(AREA(T+D)x)/(AREA(T+D)0)
AREATotal is the sum of total integrated peak areas from trimer/oligomer region through the monomer peak and excludes the initial HMW peak area but includes the excess increase of the HMW peak area that was observed when peptide was added. The HMW peak was excluded from the complexation calculation on the basis that it was aggregated protein that was not functional for complexation. This correction took into account AreaTotal factors in the minor increase in HMW area, adding it back to base total area used to calculate area of complex.
The foregoing method was applied to the SEC chromatogram for each complexation reaction by applying vertical lines to the chromatogram to produce HMW, T, C, D, and M segments (as shown in FIG. 1), calculating the area under the curve for of each of the indicated HMW, T, C, D, and M segments, and inputting the values into the equations described above.

[1] = target: T2, Recombinant human Hsc70 (rhHsc70) (Homo sapiens, UniProt P11142); experiment: Complexation of rhHsc70 with PEP006 or a PEP006-containing polypeptide, size exclusion HPLC chromatogram; format: binding
T2 construct: made in house; host or cells: E. coli
Description: Briefly, PEP006 peptide was reconstituted in water for injection (WFI) to a concentration of 645 μM. Recombinant human Hsc70 (rhHsc70) was diluted at a concentration of 1.66 mg/mL. Both solutions were pre-warmed in a 37° C. incubator for 10 minutes, and were combined and incubated at 37° C. for 60 minutes. The final concentration of rhHsc70 was 1 mg/mL (about 14.1 μM), and the molar ratio of PEP006 to rhHsc70 was 0.25:1, 0.5:1, 1:1, 1.5:1, 2:1, 2.5:1, and 3:1. A negative control containing only rhHsc70 at 1 mg/mL was also prepared.
A quantity of 10 μg of each sample was injected neat in triplicate for resolution by size exclusion HPLC (Alliance HPLC, Waters Model #2695 Separations Module; Dual Wavelength UV Detector, Waters Model 2487) using a chromatography column TSKgel SuperSW3000 (Tosoh Bioscience, Catalog #18675). […] UV absorbance of PEP006 peptide and rhHsc70 protein was measured at the wavelengths of 214 nm and 280 nm. The absorbance data was processed by Waters Empower (V2) software. […]
FIG. 3B is a graph showing percent complexation of a polypeptide comprising PEP006 with HSC70 over a range of polypeptide:Hsc70 molar ratios from 0.125:1 to 4:1, as calculated from size exclusion chromatography traces similar to those in FIG. 3A, using the methods described Example 6.1.1. […]

T1 sequence (P11142 whole entry): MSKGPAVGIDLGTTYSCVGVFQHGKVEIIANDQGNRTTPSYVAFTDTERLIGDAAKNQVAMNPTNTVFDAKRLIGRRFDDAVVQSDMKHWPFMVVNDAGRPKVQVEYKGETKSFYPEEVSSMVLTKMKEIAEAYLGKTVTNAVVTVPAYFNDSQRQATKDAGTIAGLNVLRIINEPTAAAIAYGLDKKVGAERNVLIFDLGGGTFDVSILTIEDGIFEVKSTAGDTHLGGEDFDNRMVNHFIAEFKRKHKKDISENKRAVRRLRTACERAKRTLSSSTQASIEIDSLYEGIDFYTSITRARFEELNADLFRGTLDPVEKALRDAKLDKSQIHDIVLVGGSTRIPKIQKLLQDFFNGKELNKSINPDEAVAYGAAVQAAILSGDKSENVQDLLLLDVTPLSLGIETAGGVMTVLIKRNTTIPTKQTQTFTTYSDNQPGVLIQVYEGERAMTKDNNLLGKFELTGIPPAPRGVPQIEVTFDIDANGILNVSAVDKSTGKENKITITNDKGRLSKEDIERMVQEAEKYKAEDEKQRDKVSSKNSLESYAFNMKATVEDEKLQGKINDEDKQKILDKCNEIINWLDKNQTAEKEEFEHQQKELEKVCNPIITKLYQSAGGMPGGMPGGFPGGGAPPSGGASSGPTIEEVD
T2 sequence (P11142 whole entry): as above

Sequence | Percent complexation of peptides with Hsc70, 0.25:1 (human Hsc70; peptide:Hsc70 molar ratio 0.25:1) | Percent complexation of peptides with Hsc70, 0.5:1 (human Hsc70; peptide:Hsc70 molar ratio 0.5:1) | Percent complexation of peptides with Hsc70, 1:1 (human Hsc70; peptide:Hsc70 molar ratio 1:1) | Percent complexation of peptides with Hsc70, 2:1 (human Hsc70; peptide:Hsc70 molar ratio 2:1) | Percent complexation of peptides with Hsc70, 4:1 (human Hsc70; peptide:Hsc70 molar ratio 4:1) | column retention time of complexation products when rhHsc70 bound ([1]; PEP006:rhHsc70 molar ratios 0.25:1 to 3:1, 37° C. 60 minutes, FIG. 2) | column retention time of complexation products when rhHsc70 bound ([1]; polypeptide:Hsc70 molar ratios 0.125:1 to 4:1, FIG. 3A)
FFRKNWLRLTW [PEP006] | 25.4% | 53.4% | 81.5% | 88.3% | 91.8% | column retention time became shorter | –
LGVVRPRALHRELDLVDDSPTPGSPGSFFRKNWLRLTW [polypeptide comprising PEP006] | – | – | – | – | – | – | column retention time became shorter
